Measured values: patent US20130129767A1

Experiments:
[1] = target: bovine serum albumin (bovine) (UniProt P02769); assay: static adhesion assay, IEs on coated BSA
[2] = target: decorin: CSPG (Chondroitin Sulfate Proteoglycan, Sigma) (bovine) (UniProt P21793); assay: static adhesion assay, IEs on coated CSPG
Chain of UniProt P21793 (P21793 31-360 limits assumed): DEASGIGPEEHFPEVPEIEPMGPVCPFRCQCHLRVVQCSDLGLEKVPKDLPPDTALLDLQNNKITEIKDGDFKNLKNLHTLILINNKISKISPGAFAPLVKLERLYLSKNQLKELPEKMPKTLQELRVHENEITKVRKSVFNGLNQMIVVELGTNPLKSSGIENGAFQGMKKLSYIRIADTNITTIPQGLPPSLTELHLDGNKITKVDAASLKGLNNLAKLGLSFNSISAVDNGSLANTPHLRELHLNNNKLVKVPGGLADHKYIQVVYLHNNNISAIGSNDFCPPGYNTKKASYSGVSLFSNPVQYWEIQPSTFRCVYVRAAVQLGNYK

Chain of UniProt P02769 (P02769 25-607 limits assumed): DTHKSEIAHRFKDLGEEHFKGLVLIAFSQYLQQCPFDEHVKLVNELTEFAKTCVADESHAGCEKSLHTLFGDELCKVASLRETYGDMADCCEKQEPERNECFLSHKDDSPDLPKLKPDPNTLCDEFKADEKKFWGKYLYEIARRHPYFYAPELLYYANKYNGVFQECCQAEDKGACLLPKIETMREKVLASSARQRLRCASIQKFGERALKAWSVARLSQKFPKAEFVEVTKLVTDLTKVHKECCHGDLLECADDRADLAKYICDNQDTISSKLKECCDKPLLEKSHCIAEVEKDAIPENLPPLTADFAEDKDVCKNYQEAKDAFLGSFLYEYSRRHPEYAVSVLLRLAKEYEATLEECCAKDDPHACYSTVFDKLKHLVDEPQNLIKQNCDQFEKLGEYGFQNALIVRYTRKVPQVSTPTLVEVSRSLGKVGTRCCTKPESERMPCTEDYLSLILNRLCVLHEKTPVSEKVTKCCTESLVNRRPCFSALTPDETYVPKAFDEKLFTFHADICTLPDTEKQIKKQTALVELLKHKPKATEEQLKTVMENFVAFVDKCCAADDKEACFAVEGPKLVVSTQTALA

Substance	Bound IEs/mm^2 on BSA [1]	Bound IEs/mm^2 on CSPG [2]
surface of P. falciparum-infected erythrocytes of isolate 1MH016 (naturally infected pregnant person, Benin)	2 IEs/mm^2	178 IEs/mm^2
surface of P. falciparum-infected erythrocytes of isolate 1MMCH (naturally infected pregnant person, Benin)	2.5 IEs/mm^2	394 IEs/mm^2
surface of P. falciparum-infected erythrocytes of isolate AK357 (naturally infected pregnant person, Benin)	2.5 IEs/mm^2	337 IEs/mm^2
surface of P. falciparum-infected erythrocytes of isolate AK366 (naturally infected pregnant person, Benin)	0.5 IEs/mm^2	357 IEs/mm^2
surface of P. falciparum-infected erythrocytes of isolate CM307 (naturally infected pregnant person, Benin)	1 IEs/mm^2	623 IEs/mm^2
surface of P. falciparum-infected erythrocytes of isolate CM0375 (naturally infected pregnant person, Benin)	5 IEs/mm^2	63 IEs/mm^2
surface of P. falciparum-infected erythrocytes of isolate CM0425 (naturally infected pregnant person, Benin)	1 IEs/mm^2	1040 IEs/mm^2
surface of P. falciparum-infected erythrocytes of isolate CM0437 (naturally infected pregnant person, Benin)	1 IEs/mm^2	736 IEs/mm^2
surface of P. falciparum-infected erythrocytes of isolate CM445 (naturally infected pregnant person, Benin)	1.5 IEs/mm^2	218 IEs/mm^2
surface of P. falciparum-infected erythrocytes of isolate WP0140 (naturally infected pregnant person, Benin)	2.5 IEs/mm^2	244 IEs/mm^2
surface of P. falciparum-infected erythrocytes of isolate WP0161 (naturally infected pregnant person, Benin)	1 IEs/mm^2	1300 IEs/mm^2
surface of P. falciparum-infected erythrocytes of isolate WP0168 (naturally infected pregnant person, Benin)	2 IEs/mm^2	473 IEs/mm^2
surface of P. falciparum-infected erythrocytes of isolate WP0182 (naturally infected pregnant person, Benin)	2 IEs/mm^2	339 IEs/mm^2
surface of P. falciparum-infected erythrocytes of isolate WP0200 (naturally infected pregnant person, Benin)	4.5 IEs/mm^2	185 IEs/mm^2
surface of P. falciparum-infected erythrocytes of isolate WP203 (naturally infected pregnant person, Benin)	1 IEs/mm^2	161 IEs/mm^2
